Experimental data taken from patent US20240317847A1 (Bayer, published 2024).
Numbering of substitutions follows the chain as printed. Where two headings read alike, the source gives them in different places. Each block holds one binder with its values, some of them ahead of it.

Tests used:
murine IL-11 [1] = molecular target: T1, murine IL-11 (mouse, UniProt P47873 22-199); assay: cell-based or functional assay
T1 sequence: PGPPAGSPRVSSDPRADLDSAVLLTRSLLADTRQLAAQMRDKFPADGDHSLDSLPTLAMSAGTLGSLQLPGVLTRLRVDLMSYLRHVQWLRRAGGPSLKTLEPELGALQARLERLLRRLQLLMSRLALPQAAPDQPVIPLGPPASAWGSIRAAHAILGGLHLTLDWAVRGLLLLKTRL

rat IL-11 [2] = molecular target: T2, rat IL-11 (rat, UniProt Q99MF5 22-199); assay: cell-based or functional assay
T2 sequence: T1 sequence with S50N, L84F, G94A, V137A, I138V

murine IL-11 [3] = molecular target: T1, murine IL-11; assay: SPR 37 C, antibody captured, IL-11 as analyte
Procedure: To assess the binding kinetics and affinity of anti-IL-11 antibodies as well as their species cross-reactivity profile, binding assays were conducted using surface plasmon resonance (SPR). Binding assays were performed on a Biacore T200 instrument or on a Biacore 8K+ instrument (Cytiva) at 37° C. using assay buffer HBS EP+, 300 mM NaCl, 1 mg/ml BSA, 0.05% NaN3. Antibodies were captured either via anti-human Fc IgGs (“Human antibody capture kit”, Order No. BR100839, Cytiva) or via anti-mouse Fc IgGs (“Mouse antibody capture kit, Order No. BR100383, Cytiva) covalently amine coupled to a Series S CM5 sensor chip (Cytiva) depending on the isotype. The amine coupling was carried out according to the manufacturer's instructions using 1-ethyl-3-(3-dimethylaminopropyl) carbodiimide hydrochloride (EDC), N-hydroxysuccinimide (NHS) and ethanolamine HCl, pH 8.5 (“Amine Coupling Kit” BR-1000-50, Cytiva.). Human, mouse, cynomolgus or rat IL-11 was used as analyte at several dilutions within the concentration range from 0.05-200 nM. For binding assays with only one concentration 200 nM IL-11 was used. The sensor surface was regenerated with glycine pH 1.7 after each antigen injection. Obtained sensorgrams were double referenced (subtraction of reference flow cell signal and buffer injection) and were fitted to a 1:1 Langmuir binding model to derive kinetic data using the Biacore T200 Evaluation software or the Biacore Insight software. If no value is reported, there was either no binding or very low binding and multiphasic binding behavior. Values below 1E-12 were considered to be below the dynamic range of the instrument and set to <1E-12.

murine IL-11 [4] = molecular target: T1, murine IL-11; assay: Di-complex ELISA, competitor canine IL11RA-Fc on coated IL-11;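 note: signal drop relative to signal at lowest antibody concentration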
Procedure: The assay is performed using streptavidin coated microtiter plates (Greiner bio-one, #781997). In a first step, 10 nM biotinylated mouse IL-11 (Invigate, Germany, e.g., lot #C210819-09) or human IL-11 (Invigate, Germany, e.g., lot #C121021-19) is coated in 25 μl PBS on the plate at 4° C. overnight. Next day, the plate is washed three times with 50 μl PBST and then blocked with 50 μl SmartBlock (Candor, #113125) for one hour at room temperature (RT). After additional three washes with PBST, 25 μl of a mixture of the murine anti IL-11 antibody and recombinant canine IL11RA-Fc fusion protein (Sino Biological, #70078-D02H) in PBS-T, 10% Smartblock are added simultaneously to the plate and incubated for one hour at RT. […] After three additional washes with PBS-T, 25 μl anti-human-POD (Sigma, #A0170) in PBS-T, 10% Smartblock is added and incubated for 1 hour at RT. After a final three washes with PBS-T, 25 μl AmplexRed (Fisher Scientific, A12222), 1/1000 in PBS, 0,003% H₂O₂, is added as substrate and incubated for 15 min at RT in the dark. Then, the fluorescence is measured with a plate reader at 535/595 nm. Signals from dose responses were used to calculate IC50 values (GraphPad Prism). Efficacy was calculated as [(signal measured at lowest antibody concentration−signal measured at the highest antibody concentration)×100] divided by (signal measured at lowest antibody concentration−signal measured in the absence of IL11Ra).
IgG converted antibodies were subjected to the experimental assay procedure described in Example 18.

human IL-11 [5] = molecular target: T3, human IL-11 (human, UniProt P20809 22-199); assay: cell-based or functional assay
T3 sequence: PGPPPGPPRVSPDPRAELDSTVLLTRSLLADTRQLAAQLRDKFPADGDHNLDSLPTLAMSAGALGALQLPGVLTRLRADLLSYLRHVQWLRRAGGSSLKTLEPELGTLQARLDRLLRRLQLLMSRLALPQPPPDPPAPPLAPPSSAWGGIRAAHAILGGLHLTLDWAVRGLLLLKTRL

murine IL-11 [6] = molecular target: T4, murine IL-11 (mouse, UniProt P47873 22-199); assay: cell-based or functional assay; remark: listed apart in the source
T4 sequence: T1 sequence

human IL-11 [7] = molecular target: T3, human IL-11; assay: cell-based or functional assay; remark: listed apart in the source
murine IL-11 [8] = molecular target: T4, murine IL-11; assay: cell-based or functional assay; remark: listed apart in the source
human IL-11 [9] = molecular target: T5, human IL-11 (human, UniProt P20809 22-199); assay: cell-based or functional assay; remark: listed apart in the source
T5 sequence: T3 sequence

murine IL-11 [10] = molecular target: T6, murine IL-11 (mouse, UniProt P47873 22-199); assay: cell-based or functional assay; remark: listed apart in the source
T6 sequence: T1 sequence

human IL-11 [11] = molecular target: T5, human IL-11; assay: cell-based or functional assay; remark: listed apart in the source
murine IL-11 [12] = molecular target: T6, murine IL-11; assay: cell-based or functional assay; remark: listed apart in the source
cynomolgus IL-11 = molecular target: T7, cynomolgus IL-11 (cynomolgus, UniProt P20808 22-199); assay: cell-based or functional assay
T7 sequence: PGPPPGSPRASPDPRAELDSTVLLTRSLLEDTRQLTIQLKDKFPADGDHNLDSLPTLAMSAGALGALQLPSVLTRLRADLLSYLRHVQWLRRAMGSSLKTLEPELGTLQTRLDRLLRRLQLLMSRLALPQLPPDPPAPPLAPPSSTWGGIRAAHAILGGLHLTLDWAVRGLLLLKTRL

rat IL-11 [13] = molecular target: T8, rat IL-11 (rat, UniProt Q99MF5 22-199); assay: cell-based or functional assay; remark: listed apart in the source
T8 sequence: T1 sequence with S50N, L84F, G94A, V137A, I138V

human IL-11 [14] = molecular target: T5, human IL-11; assay: Tri-complex ELISA, hIL-11 + mIL-11Ra-Fc + hgp130-Fc, inhibition of complex formation
Procedure: In the Tri-complex ELISA format IL-11 antibodies are tested for their ability to inhibit the formation of a complex consisting of murine or human gp130-Fc fusion protein, with murine or human IL-11, and a murine IL11RA-Fc fusion protein. The assay format was adapted according to FIG. 18 (a, b), depending on whether murine or human IL-11 IgG antibodies were tested.
(§1) IgG converted antibodies were subjected to the experimental assay procedure described in Example 19 and IC50 [M], respectively efficacy (%) were calculated accordingly.

murine IL-11 [15] = molecular target: T6, murine IL-11; assay: Tri-complex ELISA, mIL-11 + mIL-11Ra-Fc + mgp130-Fc, inhibition of complex formation
Procedure: In a first step, 25 μl of goat anti human IgG (Sigma, #12136), diluted 1:1000 in coating buffer (Candor, #121125) was coated on the plate at 4° C. overnight. Next day, the plate was washed one time with 50 μl PBST and then blocked with 50 μl SmartBlock (Candor, #113125) for one hour at room temperature (RT). […] After three additional washes of the coated and blocked microtiter plate with PBS-T, 25 μl of each mixture were added and the assay plate was incubated for one hour at room temperature. After three additional washes, anti-mouse-gp130 biotinylated antibody (R&D, #BAF468) or anti-human gp130 biotinylated antibody (R&D, #BAF228), both 1:1000 in 10% SmartBlock PBS-T, was added and incubated for 1 hour at RT. After three additional washes, a Streptavidin-Peroxidase conjugate (Sigma, #S5512) 1:1000 in SmartBlock PBS-T was added and incubated for one hour at room temperature. After a final three washes, AmplexRed (Fisher Scientific, A12222), 1/1000 in PBS, 0,003% H₂O₂, was added as substrate and incubated for 15 min at RT in the dark. Then, the fluorescence was measured with a plate reader at 535/595 nm. Signals from dose responses were used to calculate IC50 values using GraphPad Prism software. Efficacy was calculated as [(signal measured at lowest antibody concentration−signal measured at the highest antibody concentration)×100] divided by (signal measured at lowest antibody concentration−signal measured in the absence of antibody at an IL11 concentration of 8.2E-11 [M]).
as §1

B1: TPP-18087 (antibody, mouse IgG1, V domains shown)
VH: EVQLLESGGGLVQPGGSLRLSCAASGFTFSHYDMNWLRQAPGKGLEWVGVISYDGSNKFYADFVKGRFTISRDNSKNTLYLQMNSLRAEDTAVYYCARTPGSHFDYWGQGTLVTVSS
VL: QSVLTQPPSASGTPGQRVTISCSGSSSNIGNNAVNWYQQLPGTAPKLLIYYDDLLPSGVPDRFSGSKSGTSASLAISGLRSEDEADYYCSAWDDSLNGVVFGGGTKLTVLG
notes: mIgG1, Lambda
RGA Efficacy (%) (murine IL-11 [1]): 59.4% | RGA IC50 (murine IL-11 [1]): 16 nM | RGA Efficacy (%) (rat IL-11 [2]): 31.8% | Kd (murine IL-11 [3]): 41 nM | Efficacy (%) (murine IL-11 [4]): 2.4%

B2: TPP-31286 (antibody, IgG4, V domains shown)
VH: B1 VH with E1Q
VL: QSVLTQPPSASGTPGQRVTISCSGSSSNIGNNAVNWYQQLPGTAPKLLIYYDDLLPSGVPDRFSGSKSGTSASLAISGLRSEDEADYYCSAWDDSLNGVVFGGGTKLTVL
RGA potency (mean) (human IL-11 [5]): < 170 nM | RGA potency (mean) (murine IL-11 [6]): < 170 nM | IC50, RGA 1 (human IL-11 [7]): 59 nM | IC50, RGA 2 (human IL-11 [7]): 37 nM | IC50, RGA 1 (murine IL-11 [8]): 18 nM | IC50, RGA 2 (murine IL-11 [8]): 13 nM

B4: TPP-31287 (antibody, IgG4, V domains shown)
VH: B1 VH with L5V
VL: B2 VL
RGA potency (mean) (human IL-11 [5]): < 170 nM | RGA potency (mean) (murine IL-11 [6]): < 170 nM | IC50, RGA 1 (human IL-11 [7]): 127 nM | IC50, RGA 2 (human IL-11 [7]): 56 nM | IC50, RGA 1 (murine IL-11 [8]): 41 nM | IC50, RGA 2 (murine IL-11 [8]): 15 nM

B6: TPP-23552 (antibody, human IgG1, kappa)
heavy: not shown
light: DIVLTQSPASLALSPGERATLSCRASKSVSTSGYSYIHWYQQKPGQPPRLLIYLASNLDSGVPARFSGSGSGTDFTLNIHPLEEEDFATYYCQHSRDLPPTFGQGTKLEIKRTVAAPSVFIFPPSDEQLKSGTASVVCLLNNFYPREAKVQWKVDNALQSGNSQESVTEQDSKDSTYSLSSTLTLSKADYEKHKVYACEVTHQGLSSPVTKSFNRGEC
notes: hIgG1, Kappa; also called BSN 3C6 (WO2019238882)
Efficacy (%), Stat3 reporter gene assay (human IL-11 [9]): 87.9% | IC50, Stat3 reporter gene assay (human IL-11 [9]): 18 nM | Efficacy (%), Stat3 reporter gene assay (murine IL-11 [10]): 76% | IC50, Stat3 reporter gene assay (murine IL-11 [10]): 22 nM | Efficacy (%), Stat3 reporter gene assay (human IL-11 [11]): 76.7% | IC50, Stat3 reporter gene assay (human IL-11 [11]): 3.7 nM | Efficacy (%), Stat3 reporter gene assay (murine IL-11 [12]): 90.9% | IC50, Stat3 reporter gene assay (murine IL-11 [12]): 8.1 nM | Efficacy (%), Stat3 reporter gene assay (cynomolgus IL-11): 52.4% | Efficacy (%), Stat3 reporter gene assay (rat IL-11 [13]): 81.3% | IC50, Stat3 reporter gene assay (rat IL-11 [13]): 8.8 nM | Efficacy (%) (human IL-11 [14]): 90.6% | IC50 (human IL-11 [14]): 6.8 nM | Efficacy (%) (murine IL-11 [15]): 90.7% | IC50 (murine IL-11 [15]): 23 nM

Further lines, results first:

RGA potency (mean) (human IL-11 [5]): < 170 nM | RGA potency (mean) (murine IL-11 [6]): < 170 nM | IC50, RGA 1 (human IL-11 [7]): 67 nM | IC50, RGA 2 (human IL-11 [7]): 141 nM | IC50, RGA 1 (murine IL-11 [8]): 47 nM | IC50, RGA 2 (murine IL-11 [8]): 23 nM
B3: TPP-31288 (antibody, IgG4, V domains shown)
VH: B1 VH with L11V
VL: B2 VL

RGA potency (mean) (human IL-11 [5]): < 170 nM | RGA potency (mean) (murine IL-11 [6]): < 170 nM | IC50, RGA 1 (human IL-11 [7]): 61 nM | IC50, RGA 2 (human IL-11 [7]): 76 nM | IC50, RGA 1 (murine IL-11 [8]): 27 nM | IC50, RGA 2 (murine IL-11 [8]): 23 nM
B5: TPP-31289 (antibody, IgG4, V domains shown)
VH: B1 VH with G16R
VL: B2 VL
